# System: Escherichia coli TOP10
# Assay: shrunken log2 fold change of peptide-encoding DNA abundance (4.5 h post-induction vs induction); higher = less antimicrobial activity (less host growth inhibition)
# Settings: time post-induction: 4.5 h; library: site-saturation at positions 5, 18, 19, 20
# 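Also: peptides expressed intracellularly from a pBAD plasmid library in pooled LB shake-flask culture, induced with 0.3% L-arabinose, DNA abundance read by NGS, three biological replicates, DESeq2 with apeglm shrinkage.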
row,Sequence,shrunken log2 fold change
1,RRIRPRPPRLPRPRPRPPEQPRP,0.206
2,RRIRPRPPRLPRPRPRPAYNPRP,-1.01
3,RRIRERPPRLPRPRPRPQEIPRP,0.0133
4,RRIRNRPPRLPRPRPRPWLEPRP,-0.00992
5,RRIRPRPPRLPRPRPRPKKLPRP,-0.0688
6,RRIRFRPPRLPRPRPRPCFEPRP,-0.0728
7,RRIRRRPPRLPRPRPRPEWAPRP,0.437
8,RRIRQRPPRLPRPRPRPRTGPRP,0.443
9,RRIRRRPPRLPRPRPRPIYIPRP,-0.184
10,RRIRQRPPRLPRPRPRPWTDPRP,0.0166
11,RRIRNRPPRLPRPRPRPPKMPRP,-0.168
12,RRIRQRPPRLPRPRPRPDCDPRP,-0.0763
13,RRIRDRPPRLPRPRPRPMVCPRP,0.141
14,RRIRNRPPRLPRPRPRPNMQPRP,-0.184
15,RRIRHRPPRLPRPRPRPQEDPRP,-0.106
16,RRIRTRPPRLPRPRPRPEAAPRP,0.574
17,RRIRRRPPRLPRPRPRPTGVPRP,0.616
18,RRIRLRPPRLPRPRPRPRTIPRP,0.0584
19,RRIRFRPPRLPRPRPRPFRGPRP,-0.224
20,RRIRNRPPRLPRPRPRPIDIPRP,-0.947
21,RRIRTRPPRLPRPRPRPCLQPRP,-0.0598
22,RRIRQRPPRLPRPRPRPCNLPRP,0.0555
23,RRIRFRPPRLPRPRPRPSNYPRP,-0.396
24,RRIRIRPPRLPRPRPRPIVAPRP,-0.119
25,RRIRERPPRLPRPRPRPRYDPRP,-0.246

row,Sequence,shrunken log2 fold change
1,RRIRQRPPRLPRPRPRPWKHPRP,-0.0075
2,RRIRWRPPRLPRPRPRPTITPRP,-0.335
3,RRIRFRPPRLPRPRPRPASQPRP,-0.0114
4,RRIRQRPPRLPRPRPRPECGPRP,0.238
5,RRIRTRPPRLPRPRPRPSRRPRP,0.128
6,RRIRHRPPRLPRPRPRPWLFPRP,-0.0716
7,RRIRHRPPRLPRPRPRPLFSPRP,-0.888
8,RRIRGRPPRLPRPRPRPKGRPRP,0.792
9,RRIRFRPPRLPRPRPRPKLRPRP,0.147
10,RRIRYRPPRLPRPRPRPMVSPRP,-0.00277
11,RRIRPRPPRLPRPRPRPMIRPRP,0.339
12,RRIRLRPPRLPRPRPRPIHEPRP,0.139
13,RRIRCRPPRLPRPRPRPHPTPRP,-0.0382
14,RRIRQRPPRLPRPRPRPYLTPRP,-0.209
15,RRIRLRPPRLPRPRPRPGHAPRP,0.21
16,RRIRLRPPRLPRPRPRPMNWPRP,0.134
17,RRIRYRPPRLPRPRPRPRHNPRP,-0.477
18,RRIRVRPPRLPRPRPRPIEIPRP,-0.00163
19,RRIRSRPPRLPRPRPRPQFMPRP,-0.274
20,RRIRPRPPRLPRPRPRPGNGPRP,0.349
21,RRIRQRPPRLPRPRPRPSQEPRP,0.0169
22,RRIRYRPPRLPRPRPRPQEPPRP,-0.273
23,RRIRQRPPRLPRPRPRPYYYPRP,-1.18
24,RRIRWRPPRLPRPRPRPTLKPRP,0.0453
25,RRIRERPPRLPRPRPRPGYCPRP,-0.432

row,Sequence,shrunken log2 fold change
1,RRIRARPPRLPRPRPRPAYTPRP,-0.0472
2,RRIRWRPPRLPRPRPRPIIEPRP,-0.273
3,RRIRYRPPRLPRPRPRPNFHPRP,-0.612
4,RRIRGRPPRLPRPRPRPPGRPRP,1.35
5,RRIRVRPPRLPRPRPRPFSVPRP,-0.299
6,RRIRDRPPRLPRPRPRPYLQPRP,-0.0926
7,RRIRGRPPRLPRPRPRPYRFPRP,0.0893
8,RRIRIRPPRLPRPRPRPFLAPRP,-0.493
9,RRIRARPPRLPRPRPRPIPTPRP,-0.0942
10,RRIRIRPPRLPRPRPRPMNRPRP,-0.108
11,RRIRRRPPRLPRPRPRPSMHPRP,0.324
12,RRIRDRPPRLPRPRPRPFAFPRP,0.249
13,RRIRDRPPRLPRPRPRPNKSPRP,-0.534
14,RRIRVRPPRLPRPRPRPRPPPRP,0.843
15,RRIRQRPPRLPRPRPRPCGFPRP,-0.0124
16,RRIRPRPPRLPRPRPRPMTAPRP,0.162
17,RRIRSRPPRLPRPRPRPNWSPRP,-0.249
18,RRIRDRPPRLPRPRPRPEGDPRP,0.502
19,RRIRGRPPRLPRPRPRPVDCPRP,0.496
20,RRIRVRPPRLPRPRPRPFCEPRP,-0.197
21,RRIRGRPPRLPRPRPRPIAPPRP,1.29
22,RRIRVRPPRLPRPRPRPCWNPRP,0.0501
23,RRIRCRPPRLPRPRPRPNHTPRP,-0.536
24,RRIRGRPPRLPRPRPRPAYYPRP,-0.0149
25,RRIRYRPPRLPRPRPRPRTKPRP,0.011

row,Sequence,shrunken log2 fold change
1,RRIRTRPPRLPRPRPRPWSTPRP,-0.14
2,RRIRVRPPRLPRPRPRPWENPRP,-0.0208
3,RRIRDRPPRLPRPRPRPVNMPRP,-0.296
4,RRIRFRPPRLPRPRPRPQPNPRP,-0.0249
5,RRIRGRPPRLPRPRPRPECIPRP,1.67
6,RRIRCRPPRLPRPRPRPYIHPRP,-1.11
7,RRIRARPPRLPRPRPRPMACPRP,0.879
8,RRIRHRPPRLPRPRPRPQSFPRP,0.0133
9,RRIRARPPRLPRPRPRPNPVPRP,0.0917
10,RRIRWRPPRLPRPRPRPSNRPRP,-0.174
11,RRIRTRPPRLPRPRPRPCYMPRP,-0.156
12,RRIRCRPPRLPRPRPRPVCFPRP,-0.141
13,RRIRVRPPRLPRPRPRPNSLPRP,0.0679
14,RRIRPRPPRLPRPRPRPLPRPRP,0.443
15,RRIRNRPPRLPRPRPRPKNKPRP,-0.0876
16,RRIRARPPRLPRPRPRPILLPRP,-0.293
17,RRIRVRPPRLPRPRPRPYRLPRP,0.0399
18,RRIRPRPPRLPRPRPRPVIEPRP,-0.0347
19,RRIRFRPPRLPRPRPRPCFWPRP,0.0499
20,RRIRMRPPRLPRPRPRPWRDPRP,0.518
21,RRIRVRPPRLPRPRPRPTRCPRP,0.404
22,RRIRIRPPRLPRPRPRPIYSPRP,-0.946
23,RRIRMRPPRLPRPRPRPKFEPRP,0.109
24,RRIRQRPPRLPRPRPRPYHGPRP,-0.126
25,RRIRCRPPRLPRPRPRPCRYPRP,-0.446

row,Sequence,shrunken log2 fold change
1,RRIRGRPPRLPRPRPRPIDKPRP,1.2
2,RRIRWRPPRLPRPRPRPYSWPRP,-0.128
3,RRIRYRPPRLPRPRPRPHIYPRP,-0.725
4,RRIRDRPPRLPRPRPRPIIVPRP,0.0216
5,RRIRERPPRLPRPRPRPWSCPRP,-0.11
6,RRIRMRPPRLPRPRPRPCFHPRP,-0.318
7,RRIRARPPRLPRPRPRPHENPRP,0.127
8,RRIRPRPPRLPRPRPRPKCGPRP,0.574
9,RRIRTRPPRLPRPRPRPLSWPRP,0.0654
10,RRIRIRPPRLPRPRPRPNNHPRP,-1.03
11,RRIRNRPPRLPRPRPRPGEAPRP,0.33
12,RRIRWRPPRLPRPRPRPYMSPRP,-0.212
13,RRIRFRPPRLPRPRPRPNGPPRP,-0.0934
14,RRIRERPPRLPRPRPRPKHTPRP,-0.127
15,RRIRNRPPRLPRPRPRPLDCPRP,-0.00858
16,RRIRIRPPRLPRPRPRPMLMPRP,-0.515
17,RRIRNRPPRLPRPRPRPAHGPRP,0.047
18,RRIRHRPPRLPRPRPRPVYNPRP,-0.303
19,RRIRNRPPRLPRPRPRPHRRPRP,0.143
20,RRIRMRPPRLPRPRPRPVWKPRP,0.178
21,RRIRGRPPRLPRPRPRPPMSPRP,0.565
22,RRIRQRPPRLPRPRPRPNNSPRP,-0.904
23,RRIRVRPPRLPRPRPRPFQGPRP,-0.0641
24,RRIRTRPPRLPRPRPRPTNDPRP,-0.547
25,RRIRVRPPRLPRPRPRPRHGPRP,0.176

row,Sequence,shrunken log2 fold change
1,RRIRSRPPRLPRPRPRPRMPPRP,0.0543
2,RRIRSRPPRLPRPRPRPINEPRP,-0.249
3,RRIRMRPPRLPRPRPRPNWKPRP,-0.0351
4,RRIRLRPPRLPRPRPRPLNCPRP,-0.156
5,RRIRRRPPRLPRPRPRPQNSPRP,-0.266
6,RRIRMRPPRLPRPRPRPNGLPRP,0.062
7,RRIRCRPPRLPRPRPRPETGPRP,-0.0271
8,RRIRPRPPRLPRPRPRPQFVPRP,-0.528
9,RRIRERPPRLPRPRPRPYPEPRP,-0.918
10,RRIRYRPPRLPRPRPRPPYKPRP,-0.23
11,RRIRNRPPRLPRPRPRPFCQPRP,-0.677
12,RRIRSRPPRLPRPRPRPMEVPRP,-0.00803
13,RRIRSRPPRLPRPRPRPQQFPRP,-0.123
14,RRIRCRPPRLPRPRPRPKMFPRP,-0.265
15,RRIRLRPPRLPRPRPRPQMIPRP,-0.173
16,RRIRARPPRLPRPRPRPYGEPRP,-0.168
17,RRIRKRPPRLPRPRPRPDVKPRP,-0.0302
18,RRIRCRPPRLPRPRPRPALAPRP,0.475
19,RRIRCRPPRLPRPRPRPLINPRP,-0.621
20,RRIRARPPRLPRPRPRPHSPPRP,0.122
21,RRIRVRPPRLPRPRPRPMVTPRP,-0.043
22,RRIRLRPPRLPRPRPRPPKTPRP,0.175
23,RRIRPRPPRLPRPRPRPEVLPRP,-0.204
24,RRIRERPPRLPRPRPRPKMKPRP,-0.226
25,RRIRNRPPRLPRPRPRPSAWPRP,-0.135
